Laboratory results reported in publication PMC12204359 (2025).
Where a chain is given by its changes, count along the chain named. Numbers in names are those of the source. Like-named read-outs stand apart in the source and are kept apart here. Positions of bridges follow the written chain, without caps; N, C: chain ends. Non-standard residues stand in square brackets, D forms with d. Primed or numbered codes have the meaning given here. No end group written: not given here. FAM″ = 5(6)-carboxyfluorescein label; pS = N[C@@H](COP(=O)(O)O)C(=O)O; FAM = 5(6)-carboxyfluorescein; S5 = C=CCCC[C@](C)(N)C(=O)O; PEG3′ = PEG3 linker

B1: SP4D (peptide)
chain: KESALRKXDLYXKFDPLLRDS
modifications: N-terminal FAM; X557 and X561 are (S)-2-(4-pentenyl)alanine joined as i,i+4 hydrocarbon staple; staple position and limits inferred from Opt SP TACC3 (KESALRK*ELL*…), exact sequence only in Fig 3A
B2: clathrin heavy chain minimal ankle region (CHC^ankle, aa 358–574) (domain or fragment)
chain: AGAEELFARKFNALFAQGNYSEAAKVAANAPKGILRTPDTIRRFQSVPAQPGQTSPLLQYFGILLDQGQLNKYESLELCRPVLQQGRKQLLEKWLKEDKLECSEELGDLVKSVDPTLALSVYLRANVPNKVIQCFAETGQVQKIVLYAKKVGYTPDWIFLLRNVMRISPDQGQQFAQMLVQDEEPLADITQIVDVFMEYNLIQQCTAFLLDALKNNR
B3: K507A-CHC^ankle (domain or fragment)
chain: B2 chain with K150A
B4: biotinylated Avi-tagged ankle region of clathrin (aa 358–574) (domain or fragment)
chain: B2 chain
modifications: biotin
B5: Opt SP TACC3 (designed binder)
chain: {FAM}-KESALRKLELLLEFDPLFRDS
modifications: staple (positions not given here); not fully specified (residues 8, 12, bridges); also: (S)-2-(4-pentenyl)alanine at 557 and 561 not placed in the given letters

Key:
[1] = target: B2; test: FP
K507A-CHC^ankle [2] = target: B3; test: FP
K507A-CHC^ankle, sequence (Q00610 358-574 K507A): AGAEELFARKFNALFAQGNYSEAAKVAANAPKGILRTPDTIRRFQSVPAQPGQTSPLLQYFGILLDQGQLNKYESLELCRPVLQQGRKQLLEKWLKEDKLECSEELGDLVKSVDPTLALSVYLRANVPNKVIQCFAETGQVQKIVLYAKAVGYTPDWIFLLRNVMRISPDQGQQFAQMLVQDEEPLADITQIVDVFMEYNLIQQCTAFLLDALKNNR

[3] = target: B2; test: FP
SP6D = test: FP
SP2 = test: FP
SP3D = test: FP
P2 = test: FP
SP4E [4] = target: T1, SP4E (human, UniProt Q9Y6A5, two (S)-2-(4-pentenyl)alanine, stapled; FAM on the N-terminus); test: FP
P1 = test: FP
SP3E = test: FP
SP1 = test: FP
SP6E = test: FP
Opt P3 (pS558) = test: FP
Opt P4 (S558E) = test: FP
Opt P2 (pS558) = test: FP
Opt P8 (S558D) = test: FP
Opt P1 (pS558) = test: FP
Opt P3 (S558D) = test: FP
Opt P6 (S558E) = test: FP
Opt P2 (S558D) = test: FP
Opt P7 (pS558) = test: FP
Opt P1 (S558D) = test: FP
Opt P5 (pS558) = test: FP
Opt P5 (S558D) = test: FP
Opt P3 (S558E) = test: FP
Opt P5 (S558E) = test: FP
Opt P9 (pS558) = test: FP
Opt P7 (S558E) = test: FP
Opt P7 (S558D) = test: FP
Opt P4 (pS558) = test: FP
Opt P1 (S558E) = test: FP
Opt P9 (S558E) = test: FP
Opt P6 (S558D) = test: FP
Opt P9 (S558D) = test: FP
Opt P6 (pS558) = test: FP
Opt P8 (pS558) = test: FP
Opt P2 (S558E) = test: FP
Opt P4 (S558D) = test: FP
Opt P8 (S558E) = test: FP
SP4E [5] = target: T1, SP4E; test: SPR
[6] = target: B4; test: SPR
[7] = target: B4; test: SPR
K507A-CHC^ankle [8] = target: B3; test: FP; remark: listed apart in the source

B1
Kd [1]: 39 µM
Kd (K507A-CHC^ankle [2]): 5.2 µM

{FAM}-KESALRKQDLYLKFDPLLR [WT TACC3 S558D]
Kd [3]: 339 µM

B2
Kd (SP6D): 74 µM
Kd (SP2): 145 µM
Kd (SP3D): 92 µM
Kd (P2): 160 µM
Kd (SP4E [4]): 34 µM
Kd (P1): 105 µM
Kd (SP3E): 78 µM
Kd (SP1): 22 µM
Kd (SP6E): 54 µM
Kd (Opt P3 (pS558)): 3.3 µM
Kd (Opt P4 (S558E)): 6.1 µM
Kd (Opt P2 (pS558)): 1.2 µM
Kd (Opt P8 (S558D)): 30 µM
Kd (Opt P1 (pS558)): 1.7 µM
Kd (Opt P3 (S558D)): 22.8 µM
Kd (Opt P6 (S558E)): 2.8 µM
Kd (Opt P2 (S558D)): 3.3 µM
Kd (Opt P7 (pS558)): 4.4 µM
Kd (Opt P1 (S558D)): 6.3 µM
Kd (Opt P5 (pS558)): 5 µM
Kd (Opt P5 (S558D)): 16 µM
Kd (Opt P3 (S558E)): 13 µM
Kd (Opt P5 (S558E)): 6.7 µM
Kd (Opt P9 (pS558)): 9.5 µM
Kd (Opt P7 (S558E)): 10.1 µM
Kd (Opt P7 (S558D)): 16.2 µM
Kd (Opt P4 (pS558)): 7.1 µM
Kd (Opt P1 (S558E)): 2.4 µM
Kd (Opt P9 (S558E)): 23.4 µM
Kd (Opt P6 (S558D)): 5.5 µM
Kd (Opt P9 (S558D)): 24.5 µM
Kd (Opt P6 (pS558)): 1.8 µM
Kd (Opt P8 (pS558)): 15 µM
Kd (Opt P2 (S558E)): 1.3 µM
Kd (Opt P4 (S558D)): 6.5 µM
Kd (Opt P8 (S558E)): 13 µM

B3
Kd (SP6D): 44 µM
Kd (SP2): 23 µM
Kd (SP3D): 23 µM
Kd (P2): 19 µM
Kd (SP4E [4]): 3.7 µM
Kd (P1): 37 µM
Kd (SP3E): 22 µM
Kd (SP6E): 53 µM

B4
Kd (SP4E [5]): 2.8 µM
koff (SP4E [5]): 0.46 s⁻¹

{FAM}-FKESALRKQ[pS]LYLKFDPLLRDS [FAM-pTACC3 CID peptide (aa 549–570), phosphorylated at S558]
Kd [6]: 23 µM
koff [7]: 1.4 s⁻¹
Kd (K507A-CHC^ankle [8]): 22 µM

B5
Kd [6]: 0.03 µM
koff [7]: 0.04 s⁻¹
Kd [1]: 0.136 µM
Kd (K507A-CHC^ankle [2]): 0.19 µM

{FAM″}-KESALRKQDLY[S5]KFD[S5]LLRDS-NH2 (staple 12-16) [SP5D]
Kd [1]: 361 µM
Kd (K507A-CHC^ankle [2]): 152 µM

{FAM″}-KESALRKQELY[S5]KFD[S5]LLRDS-NH2 (staple 12-16) [SP5E]
Kd [1]: 234 µM
Kd (K507A-CHC^ankle [2]): 146 µM

{FAM-PEG3′}-KESALRK[S5]ELL[S5]EFDPLFRDS (designed binder, staple 8-12) [Opt PEG3 SP TACC3]
Kd [1]: 0.12 µM
Kd (K507A-CHC^ankle [2]): 0.178 µM

{FAM″}-KESALRK[S5]ELL[S5]EADPAFRDS-NH2 (staple 8-12) [negative control SP TACC3 (F563A & L566A)]
Kd (K507A-CHC^ankle [2]): 280 µM
